± gives the standard deviation.

A short description of this data set: protein stability index of a GFP-peptide fusion (GPS, HEK-293T) (PSI 1-6); higher = more stable.
Setting [1] is: treatment: DMSO, c terminus: a fixed tail appended.
[2] abbreviates: treatment: MLN4924 1 uM, 8 h, c terminus: a fixed tail appended.
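Also: 24-mer peptide tiles fused after GFP, lentivirally expressed, FACS-sorted into six equal bins by GFP/DsRed ratio, decoded by Illumina sequencing, PSI is the read-weighted mean bin number.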

On to VRYLNAYTGIVLLRCRKEFYQLVW [POP5], for which the protein stability index by setting is: under setting [1], 1.94 ± 0.34; under setting [2], 2.46 ± 0.74.

AASEAGRAMHLMKKREKQREQMEQ [FAM50A]: the protein stability index under setting [1] was determined as 5.05 ± 0.25 and the protein stability index under setting [2] was 4.87 ± 0.17.

For ALHLAARNGHLATVKLLVEEKADV [RIPK4], the protein stability index came to 2.85 ± 0.17 under setting [1] and 3.06 ± 0.3 under setting [2].

Take CMHEVHTFVSTCQAIDATVAAELL [HES6]: the protein stability index reads like this: under setting [1], 2.8 ± 0.85; under setting [2], 2.34 ± 0.3.

For the sequence LRLENSSLFSQALKDEEAKVLQLT [CCDC89], the protein stability index is, setting by setting: under setting [1], 3.6 ± 0.41; under setting [2], 3.62 ± 0.61.

As for PSYKVKVTGLNPKTKYILLMDIVP [TBX5], the protein stability index reads like this: under setting [1], 2.73 ± 0.28; under setting [2], 2.83 ± 0.49.

For the sequence MEEDIDTRKINNSFLRDHSYATEA [PPP2R2B], the protein stability index stood at 4.77 ± 0.19 under setting [1] and 4.72 ± 0.12 under setting [2].

As for TVQHGAVYSLEPRLCGGKGGFGSM [SDE2], the protein stability index amounted to 2.33 ± 0.37 under setting [1] and 2.39 ± 0.29 under setting [2].

Regarding NRQTFVNSAIRFLRKYSFDGLDLD [CHIT1], the protein stability index by setting is: under setting [1], 1.99 ± 0.27; under setting [2], 2.48 ± 0.22.

For the sequence LETNQQHFHALCHSLLVSTHVPR [M1AP], the protein stability index is, setting by setting: (treatment: DMSO, c terminus: native) 2.48 ± 0.43; (treatment: MLN4924 1 uM, 8 h, c terminus: native) 3.13 ± 0.9.

Consider EEKKLRRSQHARKETEFLRLKRTR [STK38L], for which the protein stability index was 3.01 ± 0.16 under setting [1] and 3.25 ± 0.27 under setting [2].

For the sequence ITAPTEVEVMDETNCQKVLNMWCC [CSNK1G3], the protein stability index came out at 2.84 ± 0.29 under setting [1] and 2.98 ± 0.29 under setting [2].

As for RVRGLGLPKLYLPTGPRRGRDELG [CDKN1A], the protein stability index runs as follows: under setting [1], 3.33 ± 0.58; under setting [2], 3.43 ± 0.057.

As to HALGSPEKVKACQGQYETIERLRS [TBC1D10A], the protein stability index under setting [1] came out at 4.03 ± 0.21 and the protein stability index under setting [2] was found to be 3.88 ± 0.3.

On to AAAGLHASPMSADRVVAFMDHIRI [NR2F2], for which the protein stability index by setting is: under setting [1], 2.25 ± 0.4; under setting [2], 2.26 ± 0.34.

With ATKSHVDKVIMKLGKTNAKAVSEM [DYNC2LI1], the protein stability index is, setting by setting: under setting [1], 3.57 ± 0.21; under setting [2], 3.51 ± 0.3.

Turning to APWWFWLSLTGVSLAGALGVKFVG [POMT2], the protein stability index under setting [1] amounted to 2.48 ± 0.23 and the protein stability index under setting [2] came to 2.27 ± 0.15.

Consider KKKAIQEEEERDQALQAKASLTIP [YJU2B], for which the protein stability index runs as follows: under setting [1], 5.27 ± 0.22; under setting [2], 5.4 ± 0.21.

Turning to INSRRWCSNLTPNVPNVCRMYCSD [SPACA3], the protein stability index was 2.13 ± 0.26 under setting [1] and 2.42 ± 0.33 under setting [2].

VASLERFSTYTSDKDENKLSEASG [ZC3H15]: the protein stability index runs as follows: under setting [1], 5.01 ± 0.42; under setting [2], 4.96 ± 0.2.

For KRRPKREKHPKKPEPQQKAPLVPP [SRPK2], the protein stability index was determined as 4.948 ± 0.035 under setting [1] and 4.99 ± 0.19 under setting [2].

Take KLNEQSPTRCTLEAGAMTFHYIIE [SEC22B]: the protein stability index was found to be 2.38 ± 0.75 under setting [1] and 2.25 ± 0.46 under setting [2].

Consider FQGSMRIFTKKLPHPDLPAEEKEQ [USP39], for which the protein stability index under setting [1] was 2.55 ± 0.75 and the protein stability index under setting [2] worked out at 3.77 ± 0.69.

On to QESDQTEEHESGIEQFSESHAIHV [IQUB], for which the protein stability index runs as follows: under setting [1], 5.34 ± 0.18; under setting [2], 5.45 ± 0.22.

Turning to MREQYEAMAERNRRDAEEWFHAKS [KRT13], the protein stability index by setting is: under setting [1], 4.81 ± 0.28; under setting [2], 4.75 ± 0.17.

For the sequence YRFASAGDDGIVVVWNAQTGEKLL [WDR41], the protein stability index reads like this: under setting [1], 2.43 ± 0.17; under setting [2], 2.75 ± 0.1.

With VLRHFHLLSDGSNTLSVSYKKGRM [SLC6A17], the protein stability index stood at 2.12 ± 0.39 under setting [1] and 2.61 ± 0.17 under setting [2].

Turning to GCWAWPLAGLSVGRSSLTACSLPL [PXN], the protein stability index came to 1.99 ± 0.86 under setting [1] and 2.15 ± 0.82 under setting [2].

ASGSVLRLVDAVLGAEIRNGMAII [HDAC6]: the protein stability index runs as follows: under setting [1], 2.91 ± 0.56; under setting [2], 2.55 ± 0.58.

Take EIDLDSMRNLKASLENSLREVEAR [KRT18]: the protein stability index runs as follows: under setting [1], 4.23 ± 0.28; under setting [2], 4.23 ± 0.48.

TIPLFVQLLYSPIENIQRVAAGVL [CTNNB1]: the protein stability index was 2.77 ± 0.78 under setting [1] and 2.71 ± 0.38 under setting [2].

As to SRRLQLGSEENGRYFSLSLMSGAL [PCDHGC5], the protein stability index under setting [1] was determined as 2.27 ± 0.4 and the protein stability index under setting [2] amounted to 2.3 ± 0.35.

Take SYMRNENVISELNIEDYFSHHLAV [FBXO39]: the protein stability index runs as follows: under setting [1], 2.26 ± 0.23; under setting [2], 2.4 ± 0.38.

For VRHNLGDTRLGQVSALPLPPAMKR [SPSB2], the protein stability index came out at 3.89 ± 0.097 under setting [1] and 3.98 ± 0.33 under setting [2].

As for DTDKLLNSASDPSLKDGLSDSDSE [PSD2], the protein stability index under setting [1] was found to be 5.45 ± 0.36 and the protein stability index under setting [2] stood at 5.57 ± 0.074.

SGPMQAALQAAAHASVDIKDVLDF [SMG5]: the protein stability index reads like this: under setting [1], 4.42 ± 0.17; under setting [2], 4.18 ± 0.1.

Regarding PFKAYLDVDITLSSEAFHNYMNAA [RTN3], the protein stability index by setting is: under setting [1], 2.92 ± 0.44; under setting [2], 2.71 ± 0.72.

Consider GKWPQVLFFPEGTCSNKKALLKFK [LPCAT4], for which the protein stability index reads like this: under setting [1], 2.52 ± 0.31; under setting [2], 2.57 ± 0.45.

With EPPPPGKHSNKKVMRTKSSEKAAN [CPXM2], the protein stability index reads like this: under setting [1], 5.09 ± 0.23; under setting [2], 5.14 ± 0.81.

As to AISLTKCLESTKLLADLKKCGDLE [MIA2], the protein stability index was 2.64 ± 0.57 under setting [1] and 2.79 ± 0.69 under setting [2].

LDNTKKKMEIYQKENKDVIQKNKL [MNAT1]: the protein stability index runs as follows: under setting [1], 4.44 ± 0.2; under setting [2], 4.34 ± 0.18.

Turning to TVRFCILGKESFYDTFHTVADMMY [HACD3], the protein stability index was 2.8 ± 0.69 under setting [1] and 2.85 ± 0.78 under setting [2].

RREVERKQKGSEENLDEAREQKEK [ADD1] had a protein stability index under setting [1] of 5.5 ± 0.29 and a protein stability index under setting [2] of 4.91 ± 0.87.

Take MVTQILGAMESQVGGGPAGPALPN [ELAVL3]: the protein stability index worked out at 2.69 ± 0.098 under setting [1] and 3.01 ± 0.53 under setting [2].

For GLKASLERLQLEYVDVVFANRPDP [KCNAB2], the protein stability index is, setting by setting: under setting [1], 2.47 ± 0.42; under setting [2], 2.21 ± 0.37.

For the sequence WEELLTMKVEAKSHLQWQESRLKR [ZSCAN9], the protein stability index runs as follows: under setting [1], 3.65 ± 0.18; under setting [2], 3.59 ± 0.37.

Regarding GTNEALLRQLRELEEQFALEAGGY [PRPH], the protein stability index runs as follows: under setting [1], 4.07 ± 0.24; under setting [2], 3.92 ± 0.26.

On to RTDLEMQIEGLNEELAYLKKNHEE [KRT15], for which the protein stability index was 4.85 ± 0.3 under setting [1] and 4.77 ± 0.22 under setting [2].

For the sequence CGDYFPDGITNGASWYSLSKGMQD [CPN1], the protein stability index was determined as 2.52 ± 0.12 under setting [1] and 2.74 ± 0.14 under setting [2].

Regarding MAEESSCTRDCMSFSVLNWDQVSR [TENT5C], the protein stability index runs as follows: under setting [1], 2.71 ± 0.29; under setting [2], 2.99 ± 0.22.

ERSVFSERTEESSAVQYFQFYGYL [CARM1] displayed a protein stability index under setting [1] of 2.08 ± 0.1 and a protein stability index under setting [2] of 2.23 ± 0.25.

Sequence AAARPSSCRRKQEDDRDGLLAERE [TMEM106C] yielded a protein stability index under setting [1] of 5.18 ± 0.25 and a protein stability index under setting [2] of 5.3 ± 0.34.

In the case of MENVPKENKVVEKAPVQNEAPALG [BEX5], the protein stability index under setting [1] turned out to be 5.33 ± 0.19 and the protein stability index under setting [2] amounted to 5.46 ± 0.16.

PKKLLNPVKASRSHQELHRELLMN [FAM107A] returned a protein stability index under setting [1] of 3.17 ± 0.21 and a protein stability index under setting [2] of 3.19 ± 0.29.

Consider SQTDRGASAGKRRCFWLGMEGLET [SDE2], for which the protein stability index is, setting by setting: under setting [1], 2.87 ± 0.45; under setting [2], 2.96 ± 0.14.

Turning to LELLEEVLALGLRTDVGITHQHWQ [RSAD1], the protein stability index came to 2.3 ± 0.72 under setting [1] and 2.13 ± 0.23 under setting [2].

As for VEQGERALERRRRALQEEERAAAQ [ZBED3], the protein stability index reads like this: under setting [1], 5.5 ± 0.2; under setting [2], 5.29 ± 0.38.

As for GTQPRATKHKCRQLTKASLKPRGC [SPACA9], the protein stability index was determined as 3.81 ± 0.29 under setting [1] and 3.95 ± 0.19 under setting [2].

As to IKRGDILPPEKGREVAKELGLPYY [RHOBTB1], the protein stability index under setting [1] was found to be 3.2 ± 0.22 and the protein stability index under setting [2] is 3.37 ± 0.39.

Consider PEKIGTRFLLYTNENPNNFQILLL [PNLIPRP1], for which the protein stability index came out at 2.26 ± 0.46 under setting [1] and 2.48 ± 0.46 under setting [2].

The sequence MSLRNRLSKSRENPEEDEDQRNPA [SOAT1] returned a protein stability index under setting [1] of 5.58 ± 0.14 and a protein stability index under setting [2] of 5.45 ± 0.14.

As to KSHVMDQAINNAINYLGAESLRPL [IKZF1], the protein stability index runs as follows: under setting [1], 2.58 ± 0.24; under setting [2], 2.49 ± 0.31.

As for INRLVGLQNTYMGYLDYRKKAIKD [GLT8D2], the protein stability index reads like this: under setting [1], 2.7 ± 0.3; under setting [2], 3.01 ± 0.05.

SSSYAGQFRVIGPRHPIRALVGDE [MOG]: the protein stability index is 3.54 ± 0.31 under setting [1] and 3.48 ± 0.32 under setting [2].

In turn, YPASTSQDSFEAAGNSTSGSRAGA [KCNA3] came in with a protein stability index under setting [1] of 5.21 ± 0.24 and a protein stability index under setting [2] of 5.2 ± 0.35.

As to KYRRHFLRFCHNNKKAKRYLLHGL [EIF5], the protein stability index reads like this: under setting [1], 2.21 ± 0.2; under setting [2], 2.27 ± 0.19.

As for FLESTDSFNNELKRLCGLKVEVDM [SMARCE1], the protein stability index by setting is: under setting [1], 4.08 ± 0.23; under setting [2], 4.22 ± 0.21.

Regarding PDPGPSPEASHLRFRRFRFQEAAG [ZNF263], the protein stability index was determined as 3.16 ± 0.13 under setting [1] and 3.23 ± 0.31 under setting [2].

On to MMHGRSYSLASGAGGGGSKGNSLK [RAB40C], for which the protein stability index reads like this: under setting [1], 4.32 ± 0.061; under setting [2], 4.51 ± 0.15.

Under setting [2], TGVFITLSIVLERMRYEGVVDIFQ [PTPRD] showed a protein stability index of 3.66 ± 0.2.

As for TEYIESPDVENEVKRLLRSDAEAV [TAF7L], the protein stability index reads like this: under setting [1], 4.97 ± 0.33; under setting [2], 5.03 ± 0.22.

In the case of NRLASLQQENKVLKIELETYKLKC [CCDC6], the protein stability index is, setting by setting: under setting [1], 2.89 ± 0.28; under setting [2], 3.23 ± 0.21.

These data come from the supplement of paper PMC10567573.
